From doi:10.1101/2025.09.18.675241 (bioRxiv, 2025) come the findings set out here.

In data set [1] the target is FAM171A2 ectodomain (K30-T315), Fc cleaved off (human) (UniProt A8MVW0). As to the kind of experiment: SEC-MALS. A general note: In gel filtration, larger molecules generally elute earlier.
The target is the same in data set [2]. As to the kind of experiment: AUC.
The target is the same in data set [3]. In words: SEC-SAXS.
A further data set deals with FAM171A2 Ecto-AP (human) (UniProt A8MVW0). As to the kind of experiment: ELISA.
Data set [4] concerns the molecule itself. As to the kind of experiment: AUC.
The data set “SEC-MALS” concerns the molecule itself. As to the kind of experiment: SEC-MALS.
Data set [5] deals with the molecule itself. As to the kind of experiment: AUC. The source holds these as a separate data set.
The data set “SEC” deals with the molecule itself. In words: SEC.
In a further data set the target is T1, FAM171A1 Ecto-AP (human, UniProt Q5VUB5 23-303).
T1 sequence: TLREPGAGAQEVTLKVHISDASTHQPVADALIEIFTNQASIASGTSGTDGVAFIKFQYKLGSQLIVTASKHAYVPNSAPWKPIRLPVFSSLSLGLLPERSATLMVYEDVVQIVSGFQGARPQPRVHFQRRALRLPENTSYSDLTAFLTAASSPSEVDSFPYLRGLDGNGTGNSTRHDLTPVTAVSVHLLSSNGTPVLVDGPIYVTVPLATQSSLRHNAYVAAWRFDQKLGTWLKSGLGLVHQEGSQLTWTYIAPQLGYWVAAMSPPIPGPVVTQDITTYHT
In words: ELISA.

As a reminder, the stoichiometry N is the number of molecules, sites or subunits per partner or assembly. Consider “FAM171A2 ectodomain (K30-T315), Fc cleaved off (from UniProt A8MVW0 30-315) (domain or fragment)”, for which the stoichiometry N in data set [1], in data set [2] and in data set [3] was 3 each time. In data set [2], the percent of the mixture as trimer is 75%. For orientation: Kd means a measure of binding affinity in units of concentration. For “FAM171A2 Ecto-Fc (from UniProt A8MVW0 30-315) (Fc fusion)”, the Kd with FAM171A2 Ecto-AP (human) was 389 nM.

B1: FAM171A1 ectodomain (T23-T303), Fc cleaved off (domain or fragment)
chain: TLREPGAGAQEVTLKVHISDASTHQPVADALIEIFTNQASIASGTSGTDGVAFIKFQYKLGSQLIVTASKHAYVPNSAPWKPIRLPVFSSLSLGLLPERSATLMVYEDVVQIVSGFQGARPQPRVHFQRRALRLPENTSYSDLTAFLTAASSPSEVDSFPYLRGLDGNGTGNSTRHDLTPVTAVSVHLLSSNGTPVLVDGPIYVTVPLATQSSLRHNAYVAAWRFDQKLGTWLKSGLGLVHQEGSQLTWTYIAPQLGYWVAAMSPPIPGPVVTQDITTYHT
modifications: four N-linked glycosylation sites occupied by Man5GlcNAc2 (from HEK293S GnTI- cells)
Consider B1, for which the “stoichiometry N” value in the data set “AUC [4]” turned out to be 2.7 monomers; in the data set “SEC-MALS”, 3; in “AUC [5]”, 2.6 monomers.

B2: FAM171A1 ectodomain Y241S/L255N (domain or fragment)
chain: TLREPGAGAQEVTLKVHISDASTHQPVADALIEIFTNQASIASGTSGTDGVAFIKFQYKLGSQLIVTASKHAYVPNSAPWKPIRLPVFSSLSLGLLPERSATLMVYEDVVQIVSGFQGARPQPRVHFQRRALRLPENTSYSDLTAFLTAASSPSEVDSFPYLRGLDGNGTGNSTRHDLTPVTAVSVHLLSSNGTPVLVDGPIYVTVPLATQSSLRHNASVAAWRFDQKLGTWNKSGLGLVHQEGSQLTWTYIAPQLGYWVAAMSPPIPGPVVTQDITTYHT
modifications: two introduced N-linked glycosylation sites
For B2, in the data set “SEC”, the “stoichiometry N” value was 3.

B3: FAM171A1 ectodomain Y241S (domain or fragment)
chain: TLREPGAGAQEVTLKVHISDASTHQPVADALIEIFTNQASIASGTSGTDGVAFIKFQYKLGSQLIVTASKHAYVPNSAPWKPIRLPVFSSLSLGLLPERSATLMVYEDVVQIVSGFQGARPQPRVHFQRRALRLPENTSYSDLTAFLTAASSPSEVDSFPYLRGLDGNGTGNSTRHDLTPVTAVSVHLLSSNGTPVLVDGPIYVTVPLATQSSLRHNASVAAWRFDQKLGTWLKSGLGLVHQEGSQLTWTYIAPQLGYWVAAMSPPIPGPVVTQDITTYHT
modifications: introduced N-linked glycosylation site
As to B3, in the data set “SEC”, the “stoichiometry N” value stood at 3.

B4: FAM171A1 Ecto-Fc (Fc fusion)
chain: TLREPGAGAQEVTLKVHISDASTHQPVADALIEIFTNQASIASGTSGTDGVAFIKFQYKLGSQLIVTASKHAYVPNSAPWKPIRLPVFSSLSLGLLPERSATLMVYEDVVQIVSGFQGARPQPRVHFQRRALRLPENTSYSDLTAFLTAASSPSEVDSFPYLRGLDGNGTGNSTRHDLTPVTAVSVHLLSSNGTPVLVDGPIYVTVPLATQSSLRHNAYVAAWRFDQKLGTWLKSGLGLVHQEGSQLTWTYIAPQLGYWVAAMSPPIPGPVVTQDITTYHT
B4: the Kd with FAM171A1 Ecto-AP worked out at 9 ± 2 nM.

B5: FAM171A1 ectodomain L255N (domain or fragment)
chain: TLREPGAGAQEVTLKVHISDASTHQPVADALIEIFTNQASIASGTSGTDGVAFIKFQYKLGSQLIVTASKHAYVPNSAPWKPIRLPVFSSLSLGLLPERSATLMVYEDVVQIVSGFQGARPQPRVHFQRRALRLPENTSYSDLTAFLTAASSPSEVDSFPYLRGLDGNGTGNSTRHDLTPVTAVSVHLLSSNGTPVLVDGPIYVTVPLATQSSLRHNAYVAAWRFDQKLGTWNKSGLGLVHQEGSQLTWTYIAPQLGYWVAAMSPPIPGPVVTQDITTYHT
modifications: introduced N-linked glycosylation site
As to B5, the “stoichiometry N” value in “SEC” was found to be 3.
